Assay results taken from paper PMC11655885, “Structural mechanism of CB1R binding to peripheral and biased inverse agonists” (Nature Communications, 2024).

Key:
CB1R-5M-PGS = CB1R-5M-PGS (Homo sapiens, UniProt P21554); test: Analytical gel filtration test of CNB36 binding to CB1R-5M-PGS; settings: purified CNB36
Method: For binding tests, 10 μM purified CNB36 was incubated for 1 hr with purified PGS or CB1R-5M-PGS (5 μM). The complex was then centrifuged at 21,130 × g for 15 min at 4 °C to remove large aggregates, and the supernatant was run on an analytical-grade Superdex 200 10/300 Increase column at 0.5 mL/min in CB1 gel filtration buffer. The presence or absence of binding of CNB36 to CB1R-5M-PGS or to PGS alone was assessed by SDS-PAGE analysis of peak fractions.

[1] = tested on: CB1R-5M-PGS over GPR55-PGS; test: Analytical flow cytometry of yeast-displayed CNB36, CB1R-5M-PGS versus GPR55-PGS; assay type: binding
Method: Supplementary Figure 1. (A-H) Sel ecti on and bi ochemi cal characteri zati on of CNB36
(A) Overall strategy for nanobody selection and sequence of CNB36.
(B) FA C S sort of a yeast display nanobody library against Alexa647-labeled CB1-PGS […]
round of selection that gave rise to CNB36. The indicated gat e (P5) contains the highly fluorescent CB1-PGS single posit ive populat ion, which was then analyzed by sequencing of individual clones.
(C) Binding of CNB36 to CB1-PGS, read out by size exclusion chromatography and SDS-PA G E . […]
(D) Assessment of binding of CNB36 to PGS alone, as in C.
(E) Analytical flow cytometry comparing binding of CNB36-expressing yeast t o Alexa647-labeled CB1-PGS (Y-axis) versus FI TC-labeled GPR55-PGS (X-axis).
(F) Final sample used for cryo-EM grid preparat ion by size excusion chromatography and […]

CB1R-5M-PGS, sequence (P21554 with tags, fused parts or gaps): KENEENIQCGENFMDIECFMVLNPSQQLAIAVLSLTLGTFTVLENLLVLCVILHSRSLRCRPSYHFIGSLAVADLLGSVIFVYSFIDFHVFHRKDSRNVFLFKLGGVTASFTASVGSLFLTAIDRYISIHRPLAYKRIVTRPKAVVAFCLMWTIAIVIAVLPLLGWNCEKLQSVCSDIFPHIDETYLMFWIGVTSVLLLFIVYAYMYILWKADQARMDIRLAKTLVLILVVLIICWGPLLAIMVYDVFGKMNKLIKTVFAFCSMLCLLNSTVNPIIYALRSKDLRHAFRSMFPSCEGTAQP

B1: CNB36: nanobody selected from a yeast display library against the CB1R-5M-PGS fusion protein (antibody, V domains shown)
VH: QVQLQESGGGLVQAGGSLRLSCAASGTIFGPDVMGWYRQAPGKERELVAGISNGANTYYADSVKGRFTISRDNAKNTVYLQMNSLKPEDTAVYYCAAEVLDYTFAYLYHAYWGQGTQVTVSS
With B1 the “complex formation with CB1R-5M-PGS by size exclusion chromatography” value (CB1R-5M-PGS) was “formed a stable complex” and the “specificity for purified CB1R-5M-PGS over GPR55-PGS by FACS” value [1] was “high specificity”.
